Patent US20210246194A1

Target: HIV-1 JRFL gp140 Recombinant protein (HIV-1 JRFL)
Experiment: Attana Cell A200 QCM; IgG captured on anti-human IgG Fc; gp140 at 25, 50 and 100 nM; 1:1 fit

| Binder | Kd |
| --- | --- |
| 7B2 IgG (antibody, V domains shown) VH: QVQLVQSGGGVFKPGGSLRLSCEASGFTFTEYYMTWVRQAPGKGLEWLAYISKNGEYSKYSPSSNGRFTISRDNAKNSVFLQLDRLSADDTAVYYCARADGLTYFSELLQYIFDLWGQGARVTVSS VL: DIVMTQSPDSLAVSPGERATIHCKSSQTLLYSSNNRHSIAWYQQRPGQPPKLLLYWASMRLSGVPDRFSGSGSGTDFTLTINNLQAEDVAIYYCHQYSSHPPTFGHGTRVEIK | 2.9 nM |
| 7B2GL IgG (antibody, V domains shown) VH: QVQLVESGGGLVKPGGSLRLSCAASGFTFSEYYMTWIRQAPGKGLEWVSYISKNGEYSKYSPSSNGRFTISRDNAKNSLYLQMNSLRAEDTAVYYCARADGLTYFSELLQYIFDLWGQGTLVTVSS VL: DIVMTQSPDSLAVSLGERATINCKSSQTLLYSSNNRHSIAWYQQKPGQPPKLLIYWASMRLSGVPDRFSGSGSGTDFTLTISSLQAEDVAVYYCHQYSSHPPTFGQGTKVEIK | 2.9 nM |
